Assay results: the supplement of paper PMC12042874
± gives the uncertainty stated by the source.

Assay: amyloid nucleation score (Sup35N fusion, yeast selection) (log enrichment); library NNK2; higher = more nucleation; inactive = no reads after selection
How it was run: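 Using DiMSum, nucleation scores were taken as the log enrichment of output over input reads, centred on the mode score of non-aggregating sequences. The input and output reads came from Illumina sequencing of plasmid inserts, with sequences under 100 input reads excluded. The yeast were psi-negative, expressed Sup35N fused to peptides of 20 random codons, were induced with 100 μM copper sulfate for 24 hours, and were grown 7 days at 30°C on medium lacking adenine and uracil.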

Substance	amyloid nucleation score
WDIYQVGGTMSLDVFVKV	-0.2 ± 0.3
WEDAVDSSVRFC	-0.211 ± 0.61
WEDKVAGSMGAWDDLG	0.791 ± 0.67
WEGNEHWKCTENLVLAKTGH	inactive
WFDIKL	-0.367 ± 0.48
WFHVAAYAFRGTCYHLGGVL	4.39 ± 0.096
WFIASLLYISLWFYICSTMS	0.878 ± 0.24
WFKVH	0.26 ± 0.8
WFVGCHTVRR	0.84 ± 0.33
WGLGCMSQSTLHGSLISSVR	-0.5 ± 0.44
WGLHYSRYHLHV	-0.494 ± 0.27
WGLSRNSNIGHRVLIVAGNL	-0.683 ± 0.35
WGNVLNLYNR	4.53 ± 0.081
WGQNNAEAFNYALMWVFRVW	2.49 ± 0.11
WGSSFR	0.592 ± 0.24
WGTDISYMGRSGCTLSGCIY	-1.13 ± 0.55
WHCNFMHWVHKR	6.383 ± 0.06
WILGKFTDKFRSSRHRRNRA	0.787 ± 0.25
WINPFAQWMNSVQIFK	0.466 ± 0.12
WISTTYASLDNPSHKGIVLM	-0.302 ± 0.48
WKESGVHRHFHTSIGKDRVL	inactive
WKFRNN	inactive
WKKSMKIVNKYAVSLPDVGR	0.29 ± 0.51
WKMWRVKAVNR	0.935 ± 0.35
WLCVRNVLMCQW	7.037 ± 0.042

Substance	amyloid nucleation score
WLFRGSIVKWTPHRPDRYAC	-0.088 ± 0.46
WLIKPVAPLSVYWSVWWSVV	0.3 ± 0.55
WLLMYPLI	-1.04 ± 0.34
WLLNLERDIFLLTLSGRMIK	0.449 ± 0.8
WLLNYYRGGVWLGLWTRKE	-1.3 ± 0.48
WLRDYRLWATT	-0.223 ± 0.63
WLVMEATLAFIRYTRGSFSL	-0.432 ± 1.1
WLYALWCDWSA	3.97 ± 0.061
WMNFCPDVGHANGGVPNRLG	0.583 ± 0.37
WMRFYSYNGIY	-1.26 ± 1.1
WMRSIWLSQHFLS	0.292 ± 0.41
WNINRIPFKVRWRAIFHMYH	-1.25 ± 0.37
WNTISRLCDLWLRVAYGSLV	0.461 ± 0.65
WPKSAILIHCRVANGLCRFV	6.586 ± 0.046
WPVHV	-1.38 ± 1.1
WPYGVGLINGWSTMVSYKVL	0.325 ± 0.8
WQIGCLADIYSYLPDGNTVG	-0.389 ± 0.4
WQKLLIDYSSSTYDEALGT	0.833 ± 0.8
WRAIALLEARTGSRQ	1.08 ± 0.14
WRLVHCIHTIGYCMPVRLRG	3.25 ± 0.088
WRPKPKWFLGGYGWTGERRL	0.418 ± 0.51
WRSLLVLAFHLRLLYVSSMK	inactive
WRVGVK	0.312 ± 0.25
WRYRHELEACWRHHSNSWYG	3.96 ± 0.052
WSEISWTIQGCFVRHDALLG	0.087 ± 0.56

Substance	amyloid nucleation score
WSGLNSNRSVDNPSISTGWS	-0.532 ± 0.56
WSKLYTFIFLASNKLLTWPC	inactive
WSLQSQGYRILDGYGV	0.6 ± 0.44
WSMCFMPVRWSFSGTIYMHK	0.472 ± 0.56
WSSHFWMFGSAVSQAWGRGW	3.17 ± 0.074
WSVCARYSSGVCIAHCTQMK	1.3 ± 0.25
WSVDYDGCLCS	-0.094 ± 0.45
WSVYKVLYCLTGFRFQRSRL	inactive
WSYHF	-0.305 ± 0.8
WSYRTESIHLYYLRPIFKIV	-1.11 ± 0.54
WTCAAFFEMDDRQGIVEIFI	0.644 ± 0.81
WTDAKALGGLSLLIRWSLEE	4.13 ± 0.087
WTHDVWSGSYEWARDGLDVK	-0.163 ± 0.79
WTMRDLCG	0.526 ± 0.3
WTPVDVLCMIGMRSVCYINM	1.79 ± 0.1
WTTRFSCITTFLRQCPYM	0.148 ± 0.79
WTWTYARDVHTTLN	1.13 ± 0.41
WTWVLMNIL	-1.76 ± 0.64
WVDMAL	0.168 ± 0.8
WVDNRWEVSLSWAGYTIF	inactive
WVHVNSCELDSPGKAWGDTG	1.11 ± 0.32
WVNSCVPGLARPNSLFFNRS	-0.491 ± 0.56
WVQHYCSEFLL	-0.313 ± 0.63
WVSVRKRHWTTHWLGVGVPN	0.611 ± 0.66
WVTWLISCCYNRLEQGCLAF	0.097 ± 0.63

Substance	amyloid nucleation score
WVVRPPDTLVLDETRVGSGM	0.699 ± 0.34
WWETSIFFWEGIYT	-0.22 ± 0.8
WWEVIRLSLRS	2.04 ± 0.13
WWRRRCR	0.224 ± 0.3
WWTIIICNWSVSKGQDDNRA	7.238 ± 0.059
WYCSHFISFHLESKF	4.76 ± 0.11
WYFWGLHMIGVSTAISNPLR	-0.683 ± 1.1
WYLYFFVFLLHMNRNLFLVL	-1.63 ± 0.55
WYSNAVG	1.57 ± 0.37
WYTDPDSDVAHYFAPQLK	-0.693 ± 1.1
WYVFACLVELYNCGPHGAID	inactive
WYVLAWDPPLSFMCLGDV	0.666 ± 0.53
YAEHYWHLDNRTDWGIKEGY	-0.78 ± 0.61
YAGFVFFRTL	inactive
YALVVLIWT	-1.43 ± 1.1
YAMCPCVYNLDSQGAC	3.85 ± 0.12
YAMGGGKGEDDLSCWYDYAC	0.219 ± 0.47
YANMVRERINWI	0.198 ± 0.28
YASTRRIGLEDIVW	-0.821 ± 0.78
YAVLSLKAWCLSG	4.61 ± 0.054
YCCPYYRKVLF	-0.559 ± 0.61
YCFEADVARMIQVFLVFCAS	0.259 ± 0.25
YCFFKVKTDLKTMCELGSTA	-0.122 ± 0.55
YCFMVRFRYGPLREMTNCSK	-0.34 ± 0.62
YCFRS	-0.542 ± 0.64

Substance	amyloid nucleation score
YCFVDALSCDLPNHEHMDVF	inactive
YCGTVFHGSRRECGISVRGW	1.19 ± 0.33
YCLSDKWTLCG	0.367 ± 0.41
YCLSSNVGVFKCFNGNVVYS	3.54 ± 0.081
YCMMPATGICVLDVSVCRDT	8.289 ± 0.054
YCMSYCRSTCYHQEFHGPAC	4.34 ± 0.072
YCSWFVWSTANVSMAYIVEF	-0.892 ± 0.41
YCVLMNS	-0.173 ± 0.41
YCYLMMEAWHMEANWYHCFV	-0.209 ± 0.2
YDCLCFFPWCRLFNSRKSMA	0.34 ± 0.14
YDCLSWRLKEERQATFGFRG	0.505 ± 0.51
YDDKGEIRLPDQSMNCFVSD	-0.766 ± 1
YDKDFCDRRTEPKKFVLRHA	0.092 ± 0.4
YDKSYFVFFNP	1.36 ± 0.27
YDLPFYAKEHGLPFVQWGNW	0.261 ± 0.22
YDQVSFAL	-0.584 ± 0.76
YDSDFFFHNLGDEPASVGFR	inactive
YDSFMVGVCYAG	-1.42 ± 1.1
YDSWLDTVVFDFFCLCLDKA	-1.42 ± 0.75
YDVGTPRIRDFLCAIDRGNH	0.106 ± 0.34
YDVNGLFTITNPAANYMKPT	-1.3 ± 0.34
YDYNCRDVWIWHA	-0.184 ± 0.63
YDYVEGAEPPLGDGCIVVFH	-0.451 ± 0.79
YECGCHLFD	-0.225 ± 0.74
YELHRNAIPRRRSQDSL	-0.81 ± 0.39

Substance	amyloid nucleation score
YESLYVKLVAEPQIRCMYYS	-0.152 ± 0.34
YEYDLSPCSVVRRVTLKRMV	1.55 ± 0.4
YFCSVSRFRVLDSDYYRKGW	-0.817 ± 1.1
YFFFIVLDLYLMSCFGVVCE	-1.13 ± 0.76
YFGCQMMSN	0.459 ± 0.54
YFGGLANKMLILSWR	0.294 ± 0.24
YFHVVFL	2.75 ± 0.094
YFIVVFMLSVNKT	0.06 ± 0.54
YFLLTFDILLCRAFGTAGPE	inactive
YFNFDL	-0.313 ± 0.76
YFNFIPGANRHDVSHFYGSY	0.299 ± 0.21
YFRCTHYTKTGTLVGDISVC	-0.657 ± 0.38
YFSCITILGFGSSNSWRRIM	-1.02 ± 0.78
YFSYVMSVAATAMLGLVVVR	0.189 ± 0.3
YFVPKLYRVSFKLYKWCFKW	0.277 ± 0.64
YFWLVFLKKHRQGLEGKGGW	0.004 ± 0.62
YFWQEIVAFNKVESLILELG	-0.451 ± 1
YFYRRVCGINAGPQPCLEYV	-1.27 ± 0.54
YGESVHTR	-0.446 ± 0.38
YGFDLKSGQSADASCASVSG	0.586 ± 0.31
YGFEAFWDNLQPAFTVPRVM	inactive
YGLLHQFRSCKRI	-0.682 ± 0.29
YGMSRNIGAVVWHFCG	-0.368 ± 1
YGMVIRCPARVCVQTLFNNA	4.86 ± 0.094
YGNPRIFIESMKYEVGIRVS	inactive

Substance	amyloid nucleation score
YGNSYRG	-0.044 ± 0.55
YGRIR	-0.131 ± 0.63
YGRPIIVMYKLLRQNSSSRL	-0.496 ± 0.48
YGSCGQRKN	0.519 ± 0.3
YHSWVGFIRYPIISWGRMMG	inactive
YHTSQLYWLLRCQSSFNSWG	2.48 ± 0.079
YIAYGDFSSFFTLNIS	7.476 ± 0.047
YICRNLISESLCLYYTGARG	5.03 ± 0.065
YIDLLGRVCHYSLGWLCYCM	-1.05 ± 1.1
YILCYTVNCNAELSHLVCDI	7.154 ± 0.058
YIPKLLRCGRGCHYILSYAD	0.065 ± 0.62
YISFSDEVFV	inactive
YISMSMLGCLRTLREVHRDR	3.21 ± 0.11
YIVCLMESIRI	3.2 ± 0.17
YIWNCDSDSIVPLLL	inactive
YKCDVICCFGIWVLMFEN	5.25 ± 0.074
YKLTGLDYKWASLNATWETQ	inactive
YKRLEMLRMSCTIWTITPPR	0.234 ± 0.32
YKVYPWLFIYLLLLDRAD	-1.45 ± 0.73
YKYMGLFSSIFNVLGSLISY	-1.95 ± 1.1
YLDGYSSFTSFEKAMARRCG	0.305 ± 0.74
YLEFSPTSITWGAPLERYST	inactive
